In one data set the test system is primary human T-cells. The data set can be described thus: 4-IPO toxicity in transduced primary T-cells. It counts as cell-based. The source says:
Compared to the HepG2 liver cells, primary T-cells might not provide an optimal environment for the function of P450 cytochromes (although the necessary reductase is ubiquitously expressed) and the infection of primary T-cells is considerably more complex.
The T cells were isolated by Ficoll and stimulated with CD3, CD28 and IL2 for 3 days before they were infected with lentiviral vectors using fibronectin. For optimal toxicity in T cells, the suicide genes were not expressed as EGFP fusions proteins but a IRES-EGFP-WPRO vector construct was used. […] However, after 24 hours over 70% of the transgenic T cells were eliminated by CYP4B1 P427 mut12. […] The determination of the virus titer was based on the titration of the reference cell line HT1080.

Data set [1] relates to HepG2 cells. The data set can be described thus: Half-life of CYP4B1/EGFP fusion proteins after cycloheximide (western blot, FACS). It is filed as cell-based, human. The conditions noted are these: EGFP fusion, 50 μg/ml cycloheximide, G418-selected HepG2 cells. As to the method:
FIGS. 3 C and D show CYP4B1 stability as analysed by western blotting and by flow cytometry. The studies on protein expression and stability were performed with the rabbit and human CYP4B1/EGFP fusion construction in the lentiviral vector with the additional IRES-neomycin cassette. Half-life analysis was performed by adding 50 μg/ml cycloheximide to the transduced and G418-selected HepG2 cells. Samples were collected at the indicated time points.
(§1) Next, it was analyzed whether the different activities of the human and the rabbit proteins in processing 4-IPO could be explained by differences in protein half-life. However, as no antibody was available that can detect both CYP4B1 proteins, EGFP fusion constructs were generated. With these constructs, EGFP antibodies can be utilized to visualize and compare the expression levels and the half-lives of the fusion proteins in cells by western blots. EGFP expression can also be used for flow cytometry assessment of the expression levels due to the fluorescent properties of the fusion proteins. 5′- and 3′-fusions of EGFP with the native rabbit P422 and the human P427 CYP4B1 proteins were cloned in LV vectors with an IRES-NEO (NEO=neomycin phosphotransferase cDNA, npt II) and stably expressed in HepG2 cells (FIG. 3 B). For comparison, the corresponding IRES-EGFP constructs were also included, as these vectors had already been used in previous experiments and activity measurements thus already existed. Transduced cells were incubated for 24, 48 and 72 hours with increasing concentration of 4-IPO. Cultures were then harvested, cells stained with propidium iodine and subsequently analyzed for survival of transduced EGFP+ cells by flow cytometry (FIG. 3 A).
After standard inhibition of de novo protein synthesis by cycloheximide, the half-life of the CYP4B1 proteins in stably transduced and G418-resistant HepG2 cells was assessed by determining the protein expression levels over time either in western blotting or in FACS analysis as EGFP fluorescence. […] For the human native protein (h-S427), the mean fluorescence indicates a short average half-life of only 6 hours.
On the technique in general: A western blot detects proteins with antibodies after separation by electrophoresis.

The test system of data set [2] is HepG2 cells. The data set can be described thus: 4-IPO toxicity assay: survival of transduced HepG2 cells by flow cytometry (propidium iodine). It is filed as cell-based, human. The conditions noted are these: for 4-IPO processing activity / cell killing (in words): transduced cells challenged with 4-IPO; for cell survival rates upon administration of 4-IPO: transduced cells.
Source text: Initially, the serine at position 427 in the human CYP4B1 was mutated back to proline (h-P427), which is present at this position in all CYP4B1 proteins. Additionally a proline to serine exchange was created in the native rabbit CYP4B1 enzyme at the corresponding position 422 (r-P422). To immediately exclude the possibility that the different activities between human and the rabbit protein isoforms are simply due to differences in mRNA stability, the human CYP4B1 cDNA (SEQ ID NO.: 2) was optimized for human-codon usage (SEQ ID NO.: 3) by de novo synthesis with silent mutagenesis of the cDNA, thus removing internal TATA-boxes, instability motives, RNA secondary structures and (cryptic) splice donor/acceptor sites and ensuring an average GC content of around 60%. All cDNAs were cloned into the same lentiviral (LV) HIV1-based expression vector and LV supernatants produced by plasmid transfection in HEK293T cells. Subsequently, the two rabbit and the four human cDNAs were stably expressed in the human liver cell line HepG2. Stably expressing transduced cells were challenged after five days with increasing concentrations of 4-IPO for 24, 48 and 72 hours and then the survival of cells analyzed by flow cytometry using propidium iodine for live/dead cell discrimination.
as §1
On the technique in general: Flow cytometry measures light scatter and fluorescence of single cells or particles in a stream.

This is an account of results in US20150216948A1, “CYTOCHROME P450 SUICIDE GENE SYSTEM” (priority 2012, published 2015).

Positions count from the first letter of the chain named.

B1: h-P427: human CYP4B1 with serine at position 427 mutated back to proline (protein)
chain: MVPSFLSLSFSSLGLWASGLILVLGFLKLIHLLLRRQTLAKAMDKFPGPPTHWLFGHALEIQETGSLDKVVSWAHQFPYAHPLWFGQFIGFLNIYEPDYAKAVYSRGDPKAPDVYDFFLQWIGKGLLVLDGPKWFQHRKLLTPGFHYDVLKPYVAIFADSTRIMLEKWEKKACEGKSFDIFSDVGHMALDTLMKCTFGKGDSGLNHRDSSYYVAVSELTLLMQQRIDSFQYHNDFIYWLTPHGRRFLRACQVAHDHTDQVIRERKAALQDEKVRKKIQNRRHLDFLDILLGARDEDDIKLSDADLRAEVDTFMFEGHDTTTSGISWFLYCMALYPEHQHRCREEVREILGDQDFFQWDDLGKMTYLTMCIKESFRLYPPVPQVYRQLSKPVTFVDGRSLPAGSLISMHIYALHRNSAVWPDPEVFDPLRFSTENASKRHPFAFMPFSAGPRNCIGQQFAMSEMKVVTAMCLLRFEFSLDPSRLPIKMPQLVLRSKNGFHLHLKPLGPGSGK
With B1, the “killing of primary T-cells with 4-IPO (in words)” value in the data set on primary human T-cells (24 h and 72 h exposure to increasing doses of 4-IPO, EGFP fusions, FIG. 7 B) is “can be killed within three days”. In addition, the protein half-life in the data set on HepG2 cells [1] stood at 20 h. The “4-IPO processing activity / cell killing (in words)” value in the data set on HepG2 cells [2] is “rendered this enzyme active for processing 4-IPO”. The “reduction in cell survival rates” value with HepG2 cells [2] (transduced cells with 4-IPO, FIG. 2) is “about 50%”. The “cell survival rates upon administration of 4-IPO” value in the data set with HepG2 cells [2] (FIG. 2) was “about 45%”.

B2: CYP4B1 P427 mut12: modified human CYP4B1 P427 protein comprising 12 further amino acid exchanges found in other human CYP4 proteins (protein)
chain: B1 chain with E166D, C173R, S182C, N205G, V213L, D227V
On to B2, for which, in the data set on primary human T-cells (after 24 hours, 4-IPO, IRES-EGFP-WPRO vector, FIG. 17), the “transgenic T cells eliminated” value is on record as “over 70%”. The “4-IPO processing activity / cell killing (in words)” value in the data set with HepG2 cells [2] is “equally good killing curve as the modified human CYP4B1 P427 mut18”.

B3: CYP4B1 P427 mut18: modified human CYP4B1 P427 with sections 1+2+3 of the rabbit protein; differs in 19 amino acids (protein)
chain: B1 chain
As to B3, the “4-IPO processing activity / cell killing (in words)” value in the data set with HepG2 cells [2] (listed as human P427 CYP4B1 protein with sections 1+2+3) was “almost as high as the activity of native rabbit protein”; in the data set with HepG2 cells [2] (listed as modified human CYP4B1 P427 protein with sections 1+2+3 of the rabbit protein) it was “increased activity for toxifying 4-IPO”. The cell survival rates entry in the data set with HepG2 cells [2] (within 72 hours upon applying 4-IPO, FIG. 6 D) is given as “about 10%”.

B4: modified human CYP4B1 P427 protein with the additional section 1 of the rabbit protein: differs in only four amino acid from the native human CYP4B1 protein (protein)
chain: MVPSFLSLSFSSLGLWASGLILVLGFLKLIHLLLRRQTLAKAMDKFPGPPTHWLFGHALEIQETGSLDKVVSWAHQFPYAHPLWFGQFIGFLNIYEPDYAKAVYSRGDPKAPDVYDFFLQWIGKGLLVLDGPKWFQHRKLLTPGFHYDVLKPYVAVFTESTRIMLDKWEEKAREGKSFDIFCDVGHMALNTLMKCTFGRGDTGLGHRDSSYYLAVSDLTLLMQQRLVSFQYHNDFIYWLTPHGRRFLRACQVAHDHTDQVIRERKAALQDEKVRKKIQNRRHLDFLDILLGARDEDDIKLSDADLRAEVDTFMFEGHDTTTSGISWFLYCMALYPEHQHRCREEVREILGDQDFFQWDDLGKMTYLTMCIKESFRLYPPVPQVYRQLSKPVTFVDGRSLPAGSLISMHIYALHRNSAVWPDPEVFDPLRFSTENASKRHPFAFMPFSAGPRNCIGQQFAMSEMKVVTAMCLLRFEFSLDPSRLPIKMPQLVLRSKNGFHLHLKPLGPGSGK
Regarding B4, the “4-IPO processing activity / cell killing (in words)” value with HepG2 cells [2] was “increased activity for toxifying 4-IPO”.

B5: coop H-P427: h-P427 expressed from cDNA optimized for human codon usage (protein, listed as Homo sapiens)
chain: B4 chain with K124R, D130E, F135L, P427S
Regarding B5, the “cell survival rates upon administration of 4-IPO” value with HepG2 cells [2] (FIG. 2) amounted to 37%.

B6: variant of hCYP4B1 having an insertion of a serine at position 207: human CYP4B1 variant with serine insertion at amino acid position 207 (protein, listed as Homo sapiens)
chain: MVPSFLSLSFSSLGLWASGLILVLGFLKLIHLLLRRQTLAKAMDKFPGPPTHWLFGHALEIQETGSLDKVVSWAHQFPYAHPLWFGQFIGFLNIYEPDYAKAVYSRGDPKAPDVYDFFLQWIGRGLLVLEGPKWLQHRKLLTPGFHYDVLKPYVAVFTESTRIMLDKWEEKAREGKSFDIFCDVGHMALNTLMKCTFGRGDTGLGHSRDSSYYLAVSDLTLLMQQRLVSFQYHNDFIYWLTPHGRRFLRACQVAHDHTDQVIRERKAALQDEKVRKKIQNRRHLDFLDILLGARDEDDIKLSDADLRAEVDTFMFEGHDTTTSGISWFLYCMALYPEHQHRCREEVREILGDQDFFQWDDLGKMTYLTMCIKESFRLYPPVPQVYRQLSKPVTFVDGRSLPAGSLISMHIYALHRNSAVWPDPEVFDSLRFSTENASKRHPFAFMPFSAGPRNCIGQQFAMSEMKVVTAMCLLRFEFSLDPSRLPIKMPQLVLRSKNGFHLHLKPLGPGSGK
modifications: serine insertion at 207
B6: the “4-IPO processing activity / cell killing (in words)” value in the data set with HepG2 cells [2] is on record as “did not reveal any functional differences”.

B7: r-S422: rabbit CYP4B1 with proline-to-serine exchange at position 422 (protein, UniProt P15128 1-506, looked up, variant P422S)
Cytochrome P450 4B1: MLGFLSRLGLWASGLILILGFLKLLRLLLRRQRLARAMDSFPGPPTHWLFGHALEIQKTGSLDKVVTWTQQFPYAHPLWVGQFIGFLNIYEPDYAKAVYSRGDPKAPDVYDFFLQWIGKGLLVLDGPKWFQHRKLLTPGFHYDVLKPYVAIFADSTRIMLEKWEKKACEGKSFDIFSDVGHMALDTLMKCTFGKGDSGLNHRDSSYYVAVSELTLLMQQRIDSFQYHNDFIYWLTPHGRRFLRACRAAHDHTDRVIRQRKAALQDEKEREKIQNRRHLDFLDILLDVRGESGVQLSDTDLRAEVDTFMFEGHDTTTSGISWFLYCMALYPEHQQRCREEVREILGDQDSFQWEDLAKMTYLTMCMKECFRLYPPVPQVYRQLSKPVSFVDGRSLPAGSLISLHIYALHRNSDVWPDPEVFDSLRFSPENSSGRHPYAFIPFSAGPRNCIGQQFAMNEMKVVTALCLLRFEFSVDPLRLPIKLPQLVLRSKNGIHLYLKPLGPKAEK
With B7, the protein half-life result in the data set on HepG2 cells [1] is recorded as “approx. 30 hours”. Also, the “transduced HepG2 cells eliminated / dead” value in the data set on HepG2 cells [2] (after 24 hours of 4-IPO treatment, FIG. 2) is on record as 73%.
